Test results taken from PMC9385276.
Where two headings read alike, the source gives them in different places.

B1: Aa10 (structured_DNA)
DNA: CAGGCTACGGCACGTAGAGCATCACCATGATCCTGAAAAAATAATACGACTCACTATAGGGTCCGTAGCCTG
B2: Aa11 (structured_DNA)
DNA: CAGGCTACGGCACGTAGAGCATCACCATGATCCTGAAAAAATAATACGACTCACTATAGGGCCGTAGCCTG

What was measured:
[1] = biological target: T1, PDGF-BB (human, UniProt P01127 82-190); test: ELISA
[2] = biological target: T1, PDGF-BB; test: ELISA; remark: listed apart in the source

T1 sequence (P01127 82-190): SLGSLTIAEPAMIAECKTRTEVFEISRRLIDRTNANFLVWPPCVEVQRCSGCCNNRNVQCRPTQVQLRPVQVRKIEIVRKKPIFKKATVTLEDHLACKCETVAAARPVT

Row | Binder | binding result [1] | binding result [2]
1 | B1 | binds | –
2 | B2 | – | binds
